# Test results from paper PMC5955610 (Structure (London, England : 1993), 2010).
# Target: T1, RMI1C (C-terminal domain of human RMI1, residues 475-625) (human, UniProt Q9H9A7 475-625, Se-Met substituted in the crystals)
# T1 sequence (looked up): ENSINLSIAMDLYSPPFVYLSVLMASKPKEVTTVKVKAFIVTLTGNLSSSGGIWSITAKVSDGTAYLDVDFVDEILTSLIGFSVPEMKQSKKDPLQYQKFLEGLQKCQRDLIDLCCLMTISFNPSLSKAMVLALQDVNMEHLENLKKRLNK
# Assay: crystal structure + SEC
binder,measurement,value
"RMI2 (residues 6-147) (domain or fragment, human, UniProt Q96E14 6-147, looked up, Se-Met substituted in the crystals) DSFSGGPAGVRLPRSPPLKVLAEQLRRDAEGGPGAWRLSRAAAGRGPLDLAAVWMQGRVVMADRGEARLRDPSGDFSVRGLERVPRGRPCLVPGKYVMVMGVVQACSPEPCLQAVKMTDLSDNPIHESMWELEVEDLHRNIP",stoichiometry N,1 RMI1C:RMI2
